Experimental findings from PMC3366968, “Functional Characterization of a First Avian Cytochrome P450 of the CYP2D Subfamily (CYP2D49)” (PLoS ONE, 2012) are described below.

Substrate in the data set: CCc1cccc2cc(C(O)CNC(C)(C)C)oc12
Put plainly: purified protein. The format is biochemical, Gallus gallus. The note with it: 2-200 µM bufuralol, NADPH, NADPH-P450 reductase, cytochrome b5, liposome, 10 mM MgCl2, 100 mM potassium phosphate pH 7.4, 37°C.

As usually defined, the Km is the concentration of substrate that gives half-maximal velocity.

B1: CYP2D49 (Gallus gallus) (protein)
chain: MTLLLWLSSWSNISVLGVFLTVFTILVDFMKRRKKWSRYPPGPMPLPFVGTMPYVNYYNPHLSFEKFRKKFGNIFSLQNCWTNVVVLNGYKTVKEALVNKSEDFADRPYMPVYEHLGYGHKSEGLVLARYGHLWKELRKFTLTTLRNFGMGKKSLEERVTEEAGFLCSAISSEGGHPFDPRFLVNNAVCNVICTITYGERFDYGDKTFKKLLTLFENSLNEEAGFLPQLLNVAPVLLRIPGLPQKIFPCQKAYVDFTQMLIDKHKETWNPAYIRDFTDAFLKEMAKGKEAEENGFNKSNLTLVTADLLVAGSETTATTLRWAFLFMLLYPEIQSKVHKEIDKVIGRNRPPTMADQVNMPYTNAVIHEVQRFGDVVPMGLPHMTYRDTELQGFFIPKGTTIITNLTSVLKDETAWKKPNEFYPEHFLNENGQFVRPEAFLPFSAGRRACLGEQLTRMELFIFFTTLMQKFTFVFPEDQPRPREDSHFAFTNSPHPYQLRAVPR
notes: full-length 502-residue ORF, N-terminal ompA leader (21 aa) plus Leu-Glu spacer, Myc-His-tagged fusion, about 55 kDa, expressed in E. coli DH5alpha, purified by Ni-NTA
As for B1, the Michaelis constant (Km) stood at 3.948 ± 0.232 µM.
